From article PMC5113989
Where two headings read alike, the source gives them in different places.

What was measured:
Assay in all cases: KinExA flow fluorimetry (depletion of 5-Helix by cells)
[1] = target: C34-conjugated CCR5 (gp41 HR2 peptide C34 fused to the amino terminus of CCR5) (HIV-1 (HxB2 numbering) | human (genomic DNA of the Jurkat T cell line)) (UniProt P04578)
[2] = target: C34-conjugated CXCR4 (gp41 HR2 peptide C34 fused to the amino terminus of CXCR4) (HIV-1 (HxB2 numbering) | not stated) (UniProt P04578)
[3] = target: C34-conjugated CCR5 (gp41 HR2 peptide C34 fused to the amino terminus of CCR5) (HIV-1 (HxB2 numbering) | human (genomic DNA of the Jurkat T cell line)) (UniProt P04578); remark: listed apart in the source
[4] = target: C34-conjugated CXCR4 (gp41 HR2 peptide C34 fused to the amino terminus of CXCR4) (HIV-1 (HxB2 numbering) | not stated) (UniProt P04578); remark: listed apart in the source

## rhodamine-conjugated 5-Helix (5-Helix variant containing a C-terminal Cys residue)
[1]
  Kd: < 0.015 nM
[2]
  Kd: < 0.015 nM
[3]
  Kd: 0.013 nM
[4]
  Kd: 0.004 nM
